Laboratory results taken from patent US20260250370.

Test system: TGFβ1 C4S Small Latent Complex (SLC)
Sequence (chain, as listed by the source): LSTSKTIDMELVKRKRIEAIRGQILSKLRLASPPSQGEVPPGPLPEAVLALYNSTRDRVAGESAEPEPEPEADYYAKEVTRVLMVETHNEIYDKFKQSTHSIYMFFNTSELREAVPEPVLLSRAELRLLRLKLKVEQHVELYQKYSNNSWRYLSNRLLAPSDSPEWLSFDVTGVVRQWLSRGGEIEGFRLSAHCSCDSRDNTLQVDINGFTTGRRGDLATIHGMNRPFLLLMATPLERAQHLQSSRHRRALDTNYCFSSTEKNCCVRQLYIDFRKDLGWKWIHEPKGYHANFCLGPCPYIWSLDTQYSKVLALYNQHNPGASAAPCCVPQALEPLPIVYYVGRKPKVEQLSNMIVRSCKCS

## kallikrein
  kallikrein digestion of LAP (gel): LAP can be cleaved by kallikrein into a R^58 LAP-D fragment and a L^59 LAP-D fragment
